For assay [1], the system named is ORTHO Plasma Coagulation Control Level 1. Put plainly: Measurement of activated partial thromboplastin time (aPTT). The settings on record: for effect on aPTT, anticoagulant activity: conclusion from Table 1; for aPTT (%): aPTT of distilled water control taken as 100%. Here is the method:
The COAGTEC (TE-600, ERMA OPTICAL WORKS LTD), a measurement instrument, was used and the following operation was conducted at 37° C. to measure the effect of polypeptide of the present invention on activated partial thromboplastin time (hereinafter abbreviated as aPTT).
First, purified samples obtained in Example 1 (5), Example 2 (5) and Example 3 (4) were dissolved in 100 μl of distilled water. Concentration of each solution was determined based on bovine trypsin-inhibiting activity using UTI as a standard. Each solution was then diluted to various concentration levels for activity measurement.
Afterward, 50 μl of the ORTHO Plasma Coagulation Control Level 1 (Ortho Diagnostic Systems Co., Ltd.) was put into glass tubes. 50 μl of the sample or 50 μl of distilled water as control was added. Furthermore, 100 μl of the Activated THROMBOFAX Reagent-Optimized (Ortho Diagnostic Systems Co., Ltd.) was added and then each glass tube was set in the apparatus. 100 μl of 0.02M CaCl2 was then added to each glass tube for the measurement, and aPTT for each test samples and the control was obtained.
The aPTT values of the samples are described in percentage when taking the aPTT value of control as 100%.

The target in assay [2] is T1, Human neutrophil elastase (Homo sapiens, UniProt P08246).
T1 construct: purchased CALBIOCHEM Type V
T1 sequence (P08246 30-267): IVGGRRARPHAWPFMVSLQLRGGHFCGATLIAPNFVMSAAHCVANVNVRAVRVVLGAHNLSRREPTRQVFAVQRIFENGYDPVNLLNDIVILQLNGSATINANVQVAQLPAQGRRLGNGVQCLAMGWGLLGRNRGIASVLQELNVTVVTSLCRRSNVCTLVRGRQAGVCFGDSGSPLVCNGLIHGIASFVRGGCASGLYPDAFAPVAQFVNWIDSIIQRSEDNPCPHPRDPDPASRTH
Put plainly: Human elastase-inhibiting activity, substrate STANA. In kind it is biochemical. The settings on record: purified sample, various concentrations; remaining activity vs buffer control (FIG. 15A-C). How it is done:
The purified sample obtained in Example 1-(5) was dissolved in 100 μl of distilled water. Concentration of this solution was determined based on its bovine trypsin-inhibiting activity using the UTI as a standard. The solution was then diluted to various concentration levels with 0.1% BSA/27 mM CaCl2 /133 mM Tris-HCl buffer (pH 7.5) for use in the activity measurement. The aforementioned UTI was also diluted in the same manner. Human elastase-inhibiting activities in the test samples and the positive control were measured in accordance with the method of Ogawa et al. (Ogawa, M. et al., Res. Commun. Chem. Pathol. Pharmacol., vol.55, pp.271-274, 1987) using a synthetic compound STANA (Peptide Institute Inc.) as a substrate.
Human neutrophil elastase (Type V, CALBIOCHEM) was dissolved in 27 mM CaCl2 /[…] Tris-HCl buffer (pH 7.5) to a concentration of 100 μg/ml and the solution was further diluted with 0.1% BSA/27 mM CaCl2 /133 mM Tris-HCl buffer (pH 7.5) to prepare 4 μg/ml of elastase solution. 100 mM solution of STANA was prepared by dissolving it in N-methyl-2-pyrrolidone and the solution was further diluted with 0.1% BSA/27 mM CaCl2 /133 mM Tris-HCl buffer (pH 7.5) to prepare 20 mM of STANA solution.
Next, 50 μl of the test sample or positive control was mixed with 50 μl of the elastase solution and 50 μl of 0.1% BSA/27 mM CaCl2 /133 mM Tris-HCl buffer (pH 7.5). After incubation at 37° C. for 10 minutes, 50 μl of the STANA solution was added to the mixture to start the reaction. The reaction was carried out at 37° C. for 20 minutes and then stopped by adding 50 μl of 50% acetic acid solution to the reaction mixture. Thereafter, absorbance at 405 nm was measured using a spectrophotometer.
In this instance, in order to eliminate absorbance of various solutions in the reaction mixture, a blank solution was prepared by mixing 50 μl of the elastase solution with 50 μl of 50% acetic acid and then with 50 μl of each test sample or the positive control, 50 μl of 0.1% BSA/27 mM CaCl2 /133 mM Tris-HCl buffer (pH 7.5) and with 50 μl of the STANA solution.
In this figure, human elastase remaining activity was expressed by percentage based on the absorbance of a control reaction mixture in which 50 μl of 0.1% BSA/27 mM CaCl2 /133 mM Tris-HCl buffer (pH 7.5) was used instead of the test sample or the positive control.

For assay [3], the system named is trypsin. As to conditions: literature report; cited from earlier work.
Assay [4] concerns chymotrypsin. The settings on record: literature report; cited from earlier work.
In assay [5] the target is plasmin (Homo sapiens, UniProt P00747). As to conditions: literature report; cited from earlier work.
The target in assay [6] is FXa (Homo sapiens, UniProt P00742). As to conditions: literature reports, very high concentration; cited from earlier work.
Assay [7] relates to elastase. As to conditions: literature report; cited from earlier work.

Entries after “also recorded” stand apart in the source; their conditions may differ.

Sequence of FXa (P00742 235-488 limits assumed): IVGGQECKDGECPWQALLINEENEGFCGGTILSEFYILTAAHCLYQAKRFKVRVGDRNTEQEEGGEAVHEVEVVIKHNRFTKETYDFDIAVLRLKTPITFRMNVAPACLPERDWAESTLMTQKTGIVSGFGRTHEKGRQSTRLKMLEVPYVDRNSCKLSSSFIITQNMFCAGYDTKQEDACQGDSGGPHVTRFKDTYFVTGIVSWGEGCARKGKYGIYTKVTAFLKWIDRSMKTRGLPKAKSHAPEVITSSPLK
Sequence of FXa (P00742 41-179 partner limits assumed): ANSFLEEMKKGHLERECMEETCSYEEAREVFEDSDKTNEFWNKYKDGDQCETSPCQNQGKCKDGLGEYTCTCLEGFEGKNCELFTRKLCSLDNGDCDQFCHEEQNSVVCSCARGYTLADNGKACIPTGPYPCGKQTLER
Sequence of plasmin (P00747 581-810 limits assumed, species assumed): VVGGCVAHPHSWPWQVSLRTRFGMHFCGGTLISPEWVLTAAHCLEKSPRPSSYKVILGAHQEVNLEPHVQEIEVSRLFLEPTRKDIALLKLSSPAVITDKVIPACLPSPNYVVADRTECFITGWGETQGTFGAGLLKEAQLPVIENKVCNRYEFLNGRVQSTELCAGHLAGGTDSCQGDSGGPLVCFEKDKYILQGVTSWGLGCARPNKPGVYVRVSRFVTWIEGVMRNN
Sequence of plasmin (P00747 97-580 partner limits assumed, species assumed): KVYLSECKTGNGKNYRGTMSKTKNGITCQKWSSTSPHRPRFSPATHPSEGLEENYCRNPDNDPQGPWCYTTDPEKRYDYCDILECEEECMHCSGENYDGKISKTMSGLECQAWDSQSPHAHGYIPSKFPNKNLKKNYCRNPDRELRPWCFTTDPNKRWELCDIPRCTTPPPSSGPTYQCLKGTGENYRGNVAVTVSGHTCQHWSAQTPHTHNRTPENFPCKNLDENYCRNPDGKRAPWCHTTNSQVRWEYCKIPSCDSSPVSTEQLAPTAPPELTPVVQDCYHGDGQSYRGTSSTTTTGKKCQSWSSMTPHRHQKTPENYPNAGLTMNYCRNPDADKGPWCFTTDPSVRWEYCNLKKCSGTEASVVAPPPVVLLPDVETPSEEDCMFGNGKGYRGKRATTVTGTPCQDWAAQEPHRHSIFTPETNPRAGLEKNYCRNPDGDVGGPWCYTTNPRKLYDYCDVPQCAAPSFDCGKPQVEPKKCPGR

With “CC51: polypeptide defined by the amino acid sequence of formula 1, purified from culture supernatant of E. coli JE5505 (pM560) (CNLPIVRGPCRAFIQLWAFDAVKGKCVLFPYGGCQGNGNKFYSEKECREYC)”, in assay [1], the “effect on aPTT, anticoagulant activity” value was “have an effect to extend aPTT and anticoagulant activity”. Moreover, the entries for the “aPTT (%)” value in assay [1] (final concentration 33 U/ml) and in assay [1] (final concentration 167 U/ml) were 172% and 256%, respectively. The human elastase-inhibiting activity result in assay [2] is “activity was found”.

B1: TN70: polypeptide defined by the amino acid sequence of formula 3, purified from culture supernatant of E. coli JE5505 (pM552) (protein)
chain: TVAACNLPIVRGPCRAFIQLWAFDAVKGKCVLFPYGGCQGNGNKFYSEKECREYCGVPGDGDEELLRFSN
Take B1: the “effect on aPTT, anticoagulant activity” value in assay [1] was “have an effect to extend aPTT and anticoagulant activity”. Further, the “aPTT (%)” value came out at 155% in assay [1] (final concentration 33 U/ml) and 230% in assay [1] (final concentration 167 U/ml). Further, in assay [2], the human elastase-inhibiting activity entry was “activity was found”.

B2: TL66: polypeptide defined by formula 8; known enzyme-digested fragment of urinary trypsin inhibitor, made in E. coli JE5505 (pM551) (protein)
chain: TVAACNLPIVRGPCRAFIQLWAFDAVKGKCVLFPYGGCQGNGNKFYSEKECREYCGVPGDGDEELL
With B2, in assay [3], the inhibition of trypsin entry is on record as “activities to inhibit”. The “effect on aPTT, anticoagulant activity” value in assay [1] was “have an effect to extend aPTT and anticoagulant activity”. The entries for the “aPTT (%)” value in assay [1] (final concentration 33 U/ml) and in assay [1] (final concentration 167 U/ml) were 157% and 239%, respectively. Further, the inhibition of chymotrypsin entry in assay [4] is on record as “activities to inhibit”. The human elastase-inhibiting activity result in assay [2] is listed as “activity was found”. Also, the inhibition of plasmin result in assay [5] is on record as “activities to inhibit”.

B3: UTI: urinary trypsin inhibitor purified from human urine (Mochida Pharmaceutical), used as positive control (protein)
chain: AVLPQEEEGSGGGQLVTEVTKKEDSCQLGYSAGPCMGMTSRYFYNGTSMACETFQYGGCMGNGNNFVTEKECLQTCRTVAACNLPIVRGPCRAFIQLWAFDAVKGKCVLFPYGGCQGNGNKFYSEKECREYCGVPGDGDEELLRFSN
modifications: glycoprotein (sugar moieties, as the filing says in general of UTI)
For B3, the inhibition of trypsin entry in assay [3] is “shows the inhibition activities”. Moreover, in assay [4], the inhibition of chymotrypsin result is listed as “shows the inhibition activities”. Besides, the human elastase-inhibiting activity result in assay [2] was “activity was found”. The inhibition of plasmin entry in assay [5] is given as “shows the inhibition activities”. In assay [6], the “inhibition of FXa activity” value is listed as “slightly inhibited; also recorded: inhibited the FXa activity”. The inhibition of elastase result in assay [7] is reported as “shows the inhibition activities”.

(Values after patent US5792629A, “Isolated DNA encoding novel protease inhibitory polypeptide” (Mochida Pharmaceutical Co., Ltd., priority 1990, dated 1998).)
